Earlier results in paper PMC4465046.
pKd: −log10 of the molar value.

Target: HIV-1 protease (Human immunodeficiency virus 1) (UniProt O93215)

## HIV-1 protease (from UniProt O93215)
  pKd: 8.17
